Test results: patent US20240255522A1

Tests used:
MHCII (DR) [1] = assay: competition ELISA
MHCII (DR) [2] = assay: competition
[3] = molecular target: HLA-DRB1*01:01 MHCII molecule (human); assay: competition ELISA; 50 nM huCLIP-bio
[4] = molecular target: HLA-DRB1*01:01 MHCII molecule (human); assay: competition ELISA; 50 nM, pp65 reference
[5] = molecular target: HLA-DRB1*01:01 MHCII molecule (human); assay: competition ELISA; 25 nM, pp65 reference
[6] = molecular target: HLA-DRB1*01:01 MHCII molecule (human); assay: competition ELISA; 25 nM huCLIP-bio

| Substance | IC50 (MHCII (DR) [1]) [nM] | IC50 (MHCII (DR) [2]) [nM] | also measured |
| --- | --- | --- | --- |
| VV HP (23-37) | 2020 |  |  |
| MOG (35-55) | 2050 |  |  |
| LCMV NP (201-215) |  | 1220 |  |
| LCMV RNAP |  | 287 |  |
| VETF (275-289) | 983 |  |  |
| OVA (323-339) | 10700 |  |  |
| mCLIP | 268 |  | IC50 [3]: 429 nM; IC50 [4]: 7.83 nM; IC50 [5]: 3.47 nM; IC50 [6]: 162 nM |
| LASV RNAP |  | 517 |  |
